Literature values as cited in paper PMC3036779.

Biological target: GABARAP (Homo sapiens) (UniProt O95166)
Sequence of UniProt O95166 (O95166 1-116): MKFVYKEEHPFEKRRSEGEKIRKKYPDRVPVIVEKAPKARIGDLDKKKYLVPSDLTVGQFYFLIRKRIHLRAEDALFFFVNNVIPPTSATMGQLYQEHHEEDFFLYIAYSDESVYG

Nix (from UniProt O60238)
Kd: 100 µM
